Source: article PMC6641176 (ACS Omega, 2017)
Substitutions are numbered along the chain they refer to. In names and notes the source's numbering stands.

B1: AqpZ-C20S (Escherichia coli aquaporin Z, C20S mutant) (natural protein)
chain: MFRKLAAECFGTFWLVFGGSGSAVLAAGFPELGIGFAGVALAFGLTVLTMAFAVGHISGGHFNPAVTIGLWAGGRFPAKEVVGYVIAQVVGGIVAAALLYLIASGKTGFDAAASGFASNGYGEHSPGGYSMLSALVVELVLSAGFLLVIHGATDKFAPAGFAPIAIGLALTLIHLISIPVTNTSVNPARSTAVAIFQGGWALEQLWFFWVVPIVGGIIGGLIYRTLLEKRD
B2: AqpZ-G144F (in the AqpZ-C20S background) (natural protein, Escherichia coli)
chain: B1 chain with G144F
B3: AqpZ-I176G (in the AqpZ-C20S background) (natural protein, Escherichia coli)
chain: B1 chain with I176G

Legend:
[1] = target: the molecule itself; experiment: SDS-PAGE and western blot
SEC = target: the molecule itself; experiment: SEC

Protein	stoichiometry N [1]	stoichiometry N (SEC)
B1	4	–
B2	–	4
B3	–	4
